Reference: patent US20260193348A1 (ANTENGENE BIOLOGICS, published 2026)

Columns and labels:
GPRC5D on MM.1S cells [1] = molecular target: T1, GPRC5D on MM.1S cells (human, UniProt Q9NZD1 1-345); experiment: cell-based or functional assay
CD3 on Jurkat cells [2] = molecular target: T2, CD3 on Jurkat cells (UniProt P07766 23-207; P04234 22-171; P09693 23-182); experiment: FACS on Jurkat cells
T2 construct: whole, on cells; On the cell, CD3 stands in the TCR-CD3 complex; also called cluster of differentiation 3
T2 sequence (P07766 23-207, chain 1 of 3): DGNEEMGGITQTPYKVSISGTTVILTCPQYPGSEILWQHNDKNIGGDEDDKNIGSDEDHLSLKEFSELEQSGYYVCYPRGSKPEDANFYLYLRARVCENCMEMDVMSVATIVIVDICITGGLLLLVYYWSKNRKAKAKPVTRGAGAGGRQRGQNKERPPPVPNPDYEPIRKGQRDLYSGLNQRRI
T2 sequence (P04234 22-171, chain 2 of 3): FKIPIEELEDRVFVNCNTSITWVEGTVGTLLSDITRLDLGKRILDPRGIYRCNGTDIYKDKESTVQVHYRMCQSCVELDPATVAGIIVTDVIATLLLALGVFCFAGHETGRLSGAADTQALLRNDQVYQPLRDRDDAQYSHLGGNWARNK
T2 sequence (P09693 23-182, chain 3 of 3): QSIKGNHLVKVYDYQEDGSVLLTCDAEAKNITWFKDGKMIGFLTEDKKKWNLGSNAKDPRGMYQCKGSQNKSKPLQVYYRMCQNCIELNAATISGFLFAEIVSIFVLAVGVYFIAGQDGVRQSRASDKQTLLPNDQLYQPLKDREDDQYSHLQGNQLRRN
Method: (§1) The binding affinities of the generated humanized Fab-scFv-Fab bispecific antibodies were determined by FACS analysis. […] (a) Jurkat cells were washed by Staining Buffer (PBS+1% BSA) in round bottom 96-well plate. [0833] (b) Antibody dilutions and cells were added to each well, incubated at 4 degrees for 1 hour. [0834] (c) Cells were spined down at 300 g for 3 minutes, and the supernatants were discarded. [0835] (d) Cells were washed with Staining Buffer. […] (e) Step (d) was repeated and the cells were incubated for 0.5 hours at 4 degrees with secondary antibody in Staining Buffer. [0837] (f) After incubation, step (d)-(e) were repeated. […] (g) Staining Buffer was added and fluorescence signals were recorded by flow cytometry.
The binding affinities of the generated humanized Fab-scFv-Fab bispecific antibodies were determined by FACS analysis. The ATG-Bis-40E9 described in Example 1 was used as positive control and hIgG1 isotype was used as negative control. The protocol for FACS analysis is described in Example 3.2 above.

GPRC5D on MM.1S cells [3] = molecular target: T1, GPRC5D on MM.1S cells; experiment: cell-based or functional assay; remark: listed apart in the source
GPRC5D on MM.1S cells [4] = molecular target: T1, GPRC5D on MM.1S cells; experiment: FACS on MM.1S cells
GPRC5D on MM.1S cells [5] = molecular target: T1, GPRC5D on MM.1S cells; experiment: cell-based or functional assay; remark: listed apart in the source
CD3 on Jurkat cells [6] = molecular target: T2, CD3 on Jurkat cells; experiment: FACS on Jurkat cells; remark: listed apart in the source
Method: as §1
The binding affinities of the generated humanized Fab-scFv-Fab bispecific antibodies were determined by FACS analysis. The protocol for FACS analysis is identical to that described in Example 3.2, except that different test antibodies were used.

GPRC5D on MM.1S cells [7] = molecular target: T1, GPRC5D on MM.1S cells; experiment: FACS on MM.1S cells; remark: listed apart in the source
Procedure, shortened: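 Binding to MM.1S cells measured by flow cytometry; cells incubated with antibody dilutions for 1 h at 4 degrees in PBS + 1% BSA, washed, then stained with secondary antibody for 0.5 h at 4 degrees before fluorescence read-out.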

GPRC5D on MM.1S cells [8] = molecular target: T1, GPRC5D on MM.1S cells; experiment: cell-based or functional assay; remark: listed apart in the source

T1 sequence (Q9NZD1 whole entry): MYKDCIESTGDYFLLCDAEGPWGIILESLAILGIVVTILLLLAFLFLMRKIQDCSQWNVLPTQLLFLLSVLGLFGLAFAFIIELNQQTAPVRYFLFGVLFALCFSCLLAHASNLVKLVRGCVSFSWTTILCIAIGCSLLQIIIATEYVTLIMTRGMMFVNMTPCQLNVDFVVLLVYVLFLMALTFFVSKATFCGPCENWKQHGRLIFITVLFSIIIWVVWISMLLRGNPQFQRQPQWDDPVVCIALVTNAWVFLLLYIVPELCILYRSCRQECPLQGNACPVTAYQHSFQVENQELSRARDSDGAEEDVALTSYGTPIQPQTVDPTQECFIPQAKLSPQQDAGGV

Top signal (CD3 on Jurkat cells [2]) | EC50, Jurkat-NFAT-Luciferase assay in the presence of MM.1S cells (GPRC5D on MM.1S cells [3]) | Top RLU, Jurkat-NFAT-Luciferase assay in the presence of MM.1S cells (GPRC5D on MM.1S cells [3]) | EC50 (GPRC5D on MM.1S cells [4]) | Top signal (GPRC5D on MM.1S cells [4]) | Ratio of EC50 (relative to ATG-Bis-40E9), luciferase assay on MM.1S (GPRC5D on MM.1S cells [5]) | Ratio of Top RLU (relative to ATG-Bis-40E9), luciferase assay on MM.1S (GPRC5D on MM.1S cells [5]) | Ratio of EC50 (relative to ATG-Bis-40E9) (CD3 on Jurkat cells [6]) | Ratio of Top MFI (relative to ATG-Bis-40E9) (CD3 on Jurkat cells [6]) | Ratio of EC50 (relative to ATG-Bis-40E9) (GPRC5D on MM.1S cells [7]) | Ratio of Top MFI (relative to ATG-Bis-40E9) (GPRC5D on MM.1S cells [7]) | EC50 (CD3 on Jurkat cells [2]) | Binder | IC50 of T-cell dependent cytotoxicity on MM.1S cells (GPRC5D on MM.1S cells [1]) | Top (%) target cell killing, MM.1S cells (GPRC5D on MM.1S cells [1]) | Ratio of IC50 (relative to ATG-Bis-40E9), MM.1S cytotoxicity (GPRC5D on MM.1S cells [8]) | Ratio of Top cytotoxicity (relative to ATG-Bis-40E9), MM.1S cytotoxicity (GPRC5D on MM.1S cells [8])
50.9 MFI | 0.98 nM | 39.2 RLU | 1.87 nM | 1830 MFI |  |  |  |  |  |  |  | Bis-108+147-R100Q.H (bispecific antibody) chain 1: EVQLVQSGAEVKKPGASVKVSCKASGYTFTSYVIHWVRQAPGQGLEWMGYFNPYNDGTKYNEEFKGRVTLTSDKSTSTAYMELRSLRSDDTAVYYCARGGVRRYFDVWGQGTTVTVSS chain 2: EVQLVQSGAEVKKPGSSVKVSCKASGYTFTSYWMHWVRQAPGQCLEWMGNINPSSGATNYNEKFKSRVTLTVDKSTSTAYMELSSLRSEDTAVYYCARDQSSQYYFDYWGQGTTVTVSSGGGGSGGGGSGGGGSGGGGSDIVMTQSPDSLAVSLGERATINCKSSQSLLNSRSRKNYLAWYQQKPGQPPKLLIYWASTRESGVPDRFSGSGSGTDFTLTISSLQAEDVAVYYCTQSYTLRTFGCGTKVEIK chain 3: DIQMTQSPSSLSASVGDRVTITCRASQDIGSNLNWLQQKPGKAIKRLIYATFGLDSGVPSRFSGSRSGTDFTLTISSLQPEDFATYYCQQYASFPYTFGGGTKVEIK | 7.53 nM | 46.3% |  | 
 | 0.011 nM | 564 RLU | 2.43 nM | 1880 MFI | 1 ratio | 1 ratio | 1 ratio | 1 ratio | 1 ratio | 1 ratio | 74.7 nM | ATG-Bis-40E9 (bispecific antibody, Fab-scFv-Fab format: two anti-GPRC5D Fab domains and one anti-CD3 scFv; LALA mutations; also called chimeric 2+1 bispecific antibody; parental antibody control; not shown: CH1; CL; CH1-hinge-CH2-CH3 with L234A, L235A; CH2-CH3 with L234A, L235A) heavy: EVQLQQSGPELVKPGASVKMSCKASGYTFTSYVIHWVKQKTGQGLEWIGYFNPYNDGTKYNEEFKGKATLTSDKSSNTAYMELNSLTSDDSAVYFCARGGVRRYFDVWGAGTTVTVSS heavy (part 1 of 2): EVQLQQSGPELVKPGASVKMSCKASGYTFTSYVIHWVKQKTGQGLEWIGYFNPYNDGTKYNEEFKGKATLTSDKSSNTAYMELNSLTSDDSAVYFCARGGVRRYFDVWGAGTTVTVSS heavy (part 2 of 2): GGGGSGGGGSEVQLQLSGPELVKPGASVKMSCKASGYTFSSYVIHWVKQKPGQGLEWIGYINPYNDVIKYNEKFKGKATLTSDKSSSTAYMELSSLTSEDSAVYYCARDSYYSYDGFAYWGQGTLVTVSAGGGGSGGGGSGGGGSGGGGSQIVLTQSPAIMSASPGEKVTMTCSASSSVSYMHWYQQKSGTSPKRWIYDTSKLASGVPARFSGSGSGTSYSLTISSMEAEDAATYYCQQWSSNPPTFGGGTKVEIKGGGGSGGGGS light: DIQMTQSPSSLSASLGERVSLTCRASQDIGSNLNWLQQEPDGTIKRLIYATFGLDSGVPKRFSGSRSGSDYSLTISSLESEDFVDYYCQQYASFPYTFGGGTKLEIK | 0.00063 nM | 99.2% | 1 ratio | 1 ratio
